Measured values published in article PMC5069765, “OsdR of Streptomyces coelicolor and the Dormancy Regulator DevR of Mycobacterium tuberculosis Control Overlapping Regulons” (mSystems, 2016).

How the values were obtained:
[1] = target: T1, OsdR~P (phosphorylated with acetyl phosphate) (Streptomyces coelicolor) (UniProt Q9RI42); test: EMSA; conditions: AcP-phosphorylated; EMSA with 32P-labeled probes, 20 fmol DNA (50-mers), uM OsdR; AcP phosphorylation; buffer, pH, temperature not given (cited method)
T1 sequence: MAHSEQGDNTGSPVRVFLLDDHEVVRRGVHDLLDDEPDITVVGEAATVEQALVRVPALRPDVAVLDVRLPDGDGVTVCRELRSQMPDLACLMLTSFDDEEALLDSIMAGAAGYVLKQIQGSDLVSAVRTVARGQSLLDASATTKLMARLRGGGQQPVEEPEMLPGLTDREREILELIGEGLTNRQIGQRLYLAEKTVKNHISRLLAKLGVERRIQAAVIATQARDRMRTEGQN

OsdR (SCO0204) = target: T2, OsdR (SCO0204) (Streptomyces coelicolor, UniProt Q9RI42); test: in vitro phosphorylation by AcP, read out by EMSA (DNA binding versus nonphosphorylated OsdR); assay type: biochemical; conditions: phosphor donor; covalent phosphorylation; indirect read-out
T2 construct: His6-tagged, from plasmid pET0204 in E. coli BL21(DE3), Ni-NTA purified
T2 sequence (Q9RI42 1-233): T1 sequence

Compound: SCO2637 promoter
- binding signal (fold lower affinity than other targets) [1]: 2

Compound: CC(=O)OP(=O)(O)O [acetyl phosphate]
- in vitro phosphorylation by AcP, read out by EMSA (DNA binding versus nonphospho) (OsdR (SCO0204)): OsdR~P was obtained after AcP phosphorylation in vitro
